Like-named read-outs stand apart in the source and are kept apart here.
T1: human LAG3 ECD recombinant protein (plate coated, tag not stated) (human, UniProt P18627 23-450)
T1 construct: extracellular domain
T1 sequence (looked up): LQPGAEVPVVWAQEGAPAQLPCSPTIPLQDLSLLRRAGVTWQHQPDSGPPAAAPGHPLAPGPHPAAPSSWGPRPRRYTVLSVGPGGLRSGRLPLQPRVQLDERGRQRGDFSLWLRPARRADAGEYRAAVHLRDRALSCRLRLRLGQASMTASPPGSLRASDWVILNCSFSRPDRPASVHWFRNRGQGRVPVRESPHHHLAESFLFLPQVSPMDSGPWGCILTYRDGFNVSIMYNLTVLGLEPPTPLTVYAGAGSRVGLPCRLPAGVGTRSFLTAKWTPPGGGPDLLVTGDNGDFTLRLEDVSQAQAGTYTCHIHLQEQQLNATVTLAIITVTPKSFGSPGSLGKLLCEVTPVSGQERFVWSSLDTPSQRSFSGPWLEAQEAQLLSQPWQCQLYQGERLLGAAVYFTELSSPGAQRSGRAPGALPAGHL

T2: human LAG3, full length, stably expressed on cells (human, UniProt P18627 23-525)
T2 construct: whole, on cells; also called CHOK1-human LAG3
T2 sequence (looked up): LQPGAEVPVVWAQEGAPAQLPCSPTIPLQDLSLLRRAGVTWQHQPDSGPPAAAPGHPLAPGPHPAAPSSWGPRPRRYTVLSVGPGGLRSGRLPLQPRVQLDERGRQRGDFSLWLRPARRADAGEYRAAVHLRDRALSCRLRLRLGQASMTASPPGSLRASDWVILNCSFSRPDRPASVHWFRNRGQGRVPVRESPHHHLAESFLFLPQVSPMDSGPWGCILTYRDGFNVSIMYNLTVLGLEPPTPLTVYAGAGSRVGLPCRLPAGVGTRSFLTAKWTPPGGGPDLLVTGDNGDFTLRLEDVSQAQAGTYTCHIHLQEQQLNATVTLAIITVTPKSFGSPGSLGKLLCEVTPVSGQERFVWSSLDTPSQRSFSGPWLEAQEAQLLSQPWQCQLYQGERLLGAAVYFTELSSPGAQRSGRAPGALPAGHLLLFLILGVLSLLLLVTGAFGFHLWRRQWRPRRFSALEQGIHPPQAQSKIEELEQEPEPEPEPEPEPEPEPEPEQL

T3: mFc tagged human LAG3 ECD recombinant protein (human, UniProt P18627 23-450)
T3 construct: extracellular domain; purchased from Biointron; not shown: mouse IgG Fc (mFc) tag
T3 sequence (looked up): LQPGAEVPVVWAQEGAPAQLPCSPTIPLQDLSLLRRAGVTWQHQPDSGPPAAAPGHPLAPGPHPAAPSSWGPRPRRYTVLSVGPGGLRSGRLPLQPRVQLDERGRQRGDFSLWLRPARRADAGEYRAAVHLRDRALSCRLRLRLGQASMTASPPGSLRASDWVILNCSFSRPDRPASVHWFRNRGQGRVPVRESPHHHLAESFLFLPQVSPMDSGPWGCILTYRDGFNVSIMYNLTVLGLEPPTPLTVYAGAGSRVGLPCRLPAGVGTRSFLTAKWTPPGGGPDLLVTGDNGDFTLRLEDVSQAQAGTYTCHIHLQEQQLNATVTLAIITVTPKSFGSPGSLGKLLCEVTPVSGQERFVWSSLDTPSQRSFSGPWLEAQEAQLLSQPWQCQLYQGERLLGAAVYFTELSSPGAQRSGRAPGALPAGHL

T4: human LAG3 (form used in Octet, Biacore and HDX-MS not given) (human, UniProt P18627 23-450, limits assumed)
T4 sequence (looked up): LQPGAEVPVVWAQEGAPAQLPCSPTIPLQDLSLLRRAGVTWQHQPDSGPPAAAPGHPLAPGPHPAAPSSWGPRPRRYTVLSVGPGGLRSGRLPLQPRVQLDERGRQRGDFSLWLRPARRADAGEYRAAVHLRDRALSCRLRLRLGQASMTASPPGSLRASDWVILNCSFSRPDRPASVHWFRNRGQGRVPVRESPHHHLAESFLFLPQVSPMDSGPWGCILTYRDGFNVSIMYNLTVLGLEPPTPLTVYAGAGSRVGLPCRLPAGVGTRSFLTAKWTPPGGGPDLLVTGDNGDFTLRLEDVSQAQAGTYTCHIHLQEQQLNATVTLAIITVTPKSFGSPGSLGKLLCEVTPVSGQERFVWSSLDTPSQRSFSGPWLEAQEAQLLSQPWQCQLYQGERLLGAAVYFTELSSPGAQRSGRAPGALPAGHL

T5: hFc tagged human LAG3 ECD recombinant protein (human, UniProt P18627 23-450)
T5 construct: range 23-450; also called biotin labelled hFc tagged human LAG3 ECD; not shown: human IgG Fc tag
T5 sequence (looked up): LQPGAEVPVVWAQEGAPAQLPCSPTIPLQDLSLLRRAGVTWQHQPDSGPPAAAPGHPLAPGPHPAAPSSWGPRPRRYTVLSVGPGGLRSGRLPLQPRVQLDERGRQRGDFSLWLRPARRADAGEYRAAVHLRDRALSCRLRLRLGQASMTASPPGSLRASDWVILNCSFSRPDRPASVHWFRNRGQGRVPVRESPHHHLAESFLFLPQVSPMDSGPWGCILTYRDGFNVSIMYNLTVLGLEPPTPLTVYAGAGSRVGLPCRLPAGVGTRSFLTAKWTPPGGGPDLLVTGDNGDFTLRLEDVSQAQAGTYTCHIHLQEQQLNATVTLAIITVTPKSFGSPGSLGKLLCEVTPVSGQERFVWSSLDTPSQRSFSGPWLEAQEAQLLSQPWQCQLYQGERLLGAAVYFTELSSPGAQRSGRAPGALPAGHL


Legend:
[1] = target: T1, human LAG3 ECD recombinant protein …; experiment: competitive ELISA format I: His-FGL1 binding to coated LAG3 ECD
Protocol: (§1) After washing, HRP labeled anti-His 2nd antibody (Sigma) was added and incubated at 37° C. for 1 hour. Then, 100 μl/well of TMB solution (Biotechnology) was added. After incubation for 15 minutes at room temperature, the reaction was stopped by the addition of 50 μl of 1N HCl. OD 450 nm was read. […] After washing, HRP labeled anti-SA 2nd antibody (Sigma) was added and incubated at 37° C. for 1 hour. Then, 100 μl/well of TMB solution (Biotechnology) was added. After incubation for 15 minutes at room temperature, the reaction was stopped by the addition of 50 μl of 1N HCl. OD 450 nm was read. […] The competition assay of format III is a competitive FACS assay. […] After washing, dye labeled anti-His 2nd antibody (Sigma) was added and incubated at 37° C. for 1 hour. Fluorescence intensity was detected.

[2] = target: T2, human LAG3, full length, stably …; experiment: FACS on 293F cells stably expressing human LAG3
Protocol: (§2) Briefly the antibodies were incubated with 2×10⁵ target cells at 4° C. for 1 hour. After washing, fluorescence labeled anti-mouse IgG 2nd antibody (Life Technologies) was added and incubated at 4° C. for 1 hour. Geometric median fluorescence intensity (MFI) was detected and EC₅₀ was calculated using GraphPad Prism9.0.
(§3) MFI was detected and EC₅₀ was calculated using GraphPad Prism9.0.

[3] = target: T3, mFc tagged human LAG3 ECD recombinant …; experiment: competitive FACS: mFc-LAG3 ECD binding to Raji cells (MHC II)
Protocol: (§4) Activity of the purified chimeric antibodies to block LAG3 and MHC II interaction was determined by competitive FACS assay. […] After washing, dye labeled anti-mouse Fc 2nd antibody (Sigma) was added and incubated at 37° C. for 1 hour. Fluorescence intensity was detected.

[4] = target: T2, human LAG3, full length, stably …; experiment: FACS on 293F cells stably expressing human LAG3; remark: listed apart in the source
Protocol: as §2, §3

[5] = target: T4, human LAG3 (form used in Octet, Biacore …); experiment: BLI (Octet)
[6] = target: T3, mFc tagged human LAG3 ECD recombinant …; experiment: competitive FACS: mFc-LAG3 ECD binding to Raji cells (MHC II); remark: listed apart in the source
Protocol: as §4

[7] = target: T5, hFc tagged human LAG3 ECD recombinant …; experiment: competitive ELISA format II: biotin hFc-LAG3 ECD binding to coated His-FGL1
Protocol: as §1

[8] = target: T4, human LAG3 (form used in Octet, Biacore …); experiment: BLI (Octet), 1:1 fit
Protocol: The purified chimeric antibodies were characterized for binding affinity against human LAG3 using Bio-Layer Interferometry technology (Octet system). The association and dissociation curves were fit with 1:1 binding model, and the Ka/Kd/KD values for each antibody were calculated.

Binder	Blocking ratio at 66.7 nM (%) [1]	EC50 [2]	TOP MFI [2]	IC50 [3]	TOP blocking (%) [3]	EC50 [4]	TOP MFI [4]	Kd [5]	koff [5]	kon [5]	IC50 [6]	TOP blocking (%) [6]	IC50 [7]	TOP blocking (%) [7]	Kd [8]	koff [8]	kon [8]
033c (antibody, human IgG4, V domains shown, human IgG4 S228P / kappa chimeric antibody; also called chimeric antibody 033; not shown: human kappa light chain constant region (pcDNA3.4-hIgGk vector)) VH: EVQLQQSGAELVRPGASVKLSCTASDFNIKDDYIHWVKQRPEQGLEWIGWIDLENGDTEYASKFQGKATITADTSSNTAYLQLSSLTSEDTAVYYCTTKGSHWGQGTLVTVSA VL: DVVMTQIPLSLPVSLGDQASISCRSSQSLVYSNGNTYLNWYLQKPGQSPKLLIHKVSNRFSGVPDRFSGSGSGTDFTLKISRVEAEDLGVYFCSQSTHVPYTFGGGTKLEIR	67.8%	2.4 nM	394	3.9 nM	95%												
hu023.07 (antibody, human IgG4, V domains shown, humanized from 023c) VH: QVQLVQSGPEVKKPGASVKVSCKASGYTFTESPMNWVRQAPGQGFEWMGIIYTDTGEPTYAEEFKGRVTMTLDTSTSTVYMELSSLRSEDTAVYFCASDYGSILYWYFDVWGQGTLVTVSS VL: DIQMTQSPSSLSASVGDRVTITCKASQDVSTAVAWYQQKPGKAPKLLIYSASYRYTGVPSRFSGSGSGTDFTLTISSLQPEDFATYYCQQHYNAPPTFGQGTKLEIK						0.32 nM	2990	0.591 nM	0.000153 s⁻¹	259000 M⁻¹ s⁻¹	5.5 nM	99.2%	1.5 nM	81.3%			
hu023.10 (antibody, human IgG4, V domains shown, humanized from 023c) VH: QVQLVQSGPELKKPGASVKVSCKASGYTFTESPMNWVRQAPGQGFEWMGIIYTDTGEPTYAEEFKGRFVFSLDTSVSTAYLQISSLKAEDTAVYFCVSDYGSILYWYFDVWGQGTLVTVSS VL: DIQMTQSPSSLSASVGDRVTITCKASQDVSTAVAWYQQKPGKAPKLLIYSASYRYTGVPSRFSGSGSGTDFTLTISSLQPEDFATYYCQQHYNAPPTFGQGTKLEIK						0.2 nM	3200	0.281 nM	7.96e-05 s⁻¹	284000 M⁻¹ s⁻¹	5.9 nM	99.2%	1.3 nM	82.8%			
hu023.13 (antibody, human IgG4, V domains shown, humanized from 023c) VH: QIQLVQSGPELKKPGASVKISCKASGYTFTESPMNWVRQAPGQGFEWMGIIYTDTGEPTYAEEFKGRFVFSLDTSVSTAYLQISSLKAEDTAVYFCVSDYGSILYWYFDVWGQGTLVTVSS VL: DIQMTQSPSSLSASVGDRVTITCKASQDVSTAVAWYQQKPGKAPKLLIYSASYRYTGVPSRFSGSGSGTDFTLTISSLQPEDFATYYCQQHYNAPPTFGQGTKLEIK						0.19 nM	3100	0.121 nM	3.67e-05 s⁻¹	303000 M⁻¹ s⁻¹	5.7 nM	99.3%	1.2 nM	83.2%			
048c (antibody, human IgG4, V domains shown, human IgG4 S228P / kappa chimeric antibody; also called chimeric antibody 048; not shown: human kappa light chain constant region (pcDNA3.4-hIgGk vector)) VH: EFQVQQSGPELVKPGASVKISCKASGYSFSDYNMNWLKQSTGKSLEWIGLVDPIYGTIRYNQKFKGKATLTVDQSSSTAYMQLNSLTSEDSAVYYCALITTSVRYFDYWGQGTTLTVSS VL: DVLMTQTPLSLPVSLGDQASISCRSSQNIVHTDGNTYLEWYLQKPGQSPKLLIYKVSNRFSGVPDRFSGSGSGTDFTLKISRVEAEDLGVYYCFQGSHVPPTFGGGTKLEIK	41.2%	1.3 nM	289	4 nM	64.6%												
039c (antibody, human IgG4, V domains shown, human IgG4 S228P / kappa chimeric antibody; also called chimeric antibody 039; not shown: human kappa light chain constant region (pcDNA3.4-hIgGk vector)) VH: EFQLQQSGPELVKPGASVKISCKASGYSFTDYNLNWVRQSNGKSLEWIGLVDPIYGTIRYNQNFKDKATLTVDQSSSTAYMQLNSLTSEDSAVYYCASIMTAVRYFDHWGQGTTLTVSS VL: DVLMTQTPLFLPVSLGDQASISCRSSLNIVHSDGNTYLEWYLQKPGQSPKLLIYKVSNRFSGVPDRFSGSGSGTDFTLKISGVEAEDLGVYYCFQGSHVPPTFGGGTKLEIK	40.2%	1.3 nM	302	4.7 nM	62%												
TSR-033 (antibody, V domains shown) VH: EVQLVQSGAEVKKPGATVKISCKASGFSIKDDYIHWVQQAPGKGLEWMGWIDAMNDDSQYSSKFQGRVTITVDTSTNTAYMKLSSLRSEDTAVYYCTYAFGGYWGQGTTVTVSS VL: DIVMTQTPLSLSVTPGQPASISCRSSQSLVHSDSNTYLHWYLQKPGQSPQLLIYLVSNRFSGVPDRFSGSGSGTDFTLKISRVEAEDVGVYFCGQSTHVPYAFGGGTKVEIK		2.6 nM	247	12.4 nM	96%										2.72 nM	0.000674 s⁻¹	248000 M⁻¹ s⁻¹

Reference: patent US20250313625A1 (ELPISCIENCE SUZHOU BIOPHARMA, published 2025)
